Data published in article PMC5381515 (Structure (London, England : 1993), 2017).
One block for each molecule: values may come before it.

Columns and labels:
[1] = target: truncated human βB2-crystallin (14–194) (human); assay: SEC-MALS
SEC-MALS = target: the molecule itself; assay: SEC-MALS

stoichiometry N [1]: 2
Molecule: truncated human βB2-crystallin (14–194) (domain or fragment)

B1: full-length human βB2-crystallin (natural protein, UniProt P43320 1-205, looked up)
chain: MASDHQTQAGKPQSLNPKIIIFEQENFQGHSHELNGPCPNLKETGVEKAGSVLVQAGPWVGYEQANCKGEQFVFEKGEYPRWDSWTSSRRTDSLSSLRPIKVDSQEHKIILYENPNFTGKKMEIIDDDVPSFHAHGYQEKVSSVRVQSGTWVGYQYPGYRGLQYLLEKGDYKDSSDFGAPHPQVQSVRRIRDMQWHQRGAFHPSN
stoichiometry N (SEC-MALS): 2
